According to PMC4216083:

Target: Toll-like receptor 4 (human (endogenous in monocyte-derived DCs)) (UniProt O00206)
Chain of UniProt O00206 (O00206 24-839): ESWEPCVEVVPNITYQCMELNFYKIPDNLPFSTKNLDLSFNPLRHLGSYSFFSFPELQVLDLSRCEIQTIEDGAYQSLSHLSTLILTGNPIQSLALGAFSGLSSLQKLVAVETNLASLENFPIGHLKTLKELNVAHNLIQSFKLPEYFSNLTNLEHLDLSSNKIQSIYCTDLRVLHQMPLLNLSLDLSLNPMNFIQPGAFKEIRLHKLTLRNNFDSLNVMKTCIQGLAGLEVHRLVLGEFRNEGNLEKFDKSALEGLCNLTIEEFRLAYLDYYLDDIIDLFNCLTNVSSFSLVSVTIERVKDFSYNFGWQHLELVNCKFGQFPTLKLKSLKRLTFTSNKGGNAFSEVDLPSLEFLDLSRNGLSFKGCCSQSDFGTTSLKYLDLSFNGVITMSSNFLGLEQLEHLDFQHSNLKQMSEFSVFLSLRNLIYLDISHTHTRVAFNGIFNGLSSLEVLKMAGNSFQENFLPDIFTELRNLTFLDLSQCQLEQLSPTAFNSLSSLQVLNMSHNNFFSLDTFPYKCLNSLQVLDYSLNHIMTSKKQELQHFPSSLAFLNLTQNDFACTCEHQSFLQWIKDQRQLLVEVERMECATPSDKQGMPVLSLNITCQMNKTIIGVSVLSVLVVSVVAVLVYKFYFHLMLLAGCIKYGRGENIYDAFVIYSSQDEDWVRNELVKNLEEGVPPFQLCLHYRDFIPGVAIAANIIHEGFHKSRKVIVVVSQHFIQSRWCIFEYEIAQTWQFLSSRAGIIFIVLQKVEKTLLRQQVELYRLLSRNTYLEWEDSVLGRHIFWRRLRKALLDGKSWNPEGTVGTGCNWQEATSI

What does the source list for “Enterovirus 71 virus-like particles (complex)”?
decrease of EV71 VLP (10 µg/mL)-induced IL-10 production by human DCs after pre-incubation with anti-TLR4 mAb (HTA125, 20 µg/mL), ELISA: 41%; decrease of EV71 VLP (10 µg/mL)-induced IL-12 p40 production by human DCs after pre-incubation with anti-TLR4 mAb (HTA125, 20 µg/mL), ELISA: 48%; decrease of EV71 VLP (10 µg/mL)-induced IL-12 p70 production by human DCs after pre-incubation with anti-TLR4 mAb (HTA125, 20 µg/mL), ELISA: 68%
